Test results published in patent publication CN109957012A.

What was measured:
[1] = target: H7N9病毒的血凝素HA (H7N9 influenza virus); experiment: ELISA of 293F transfection supernatant (well C, supernatant)
[2] = target: H7N9病毒的血凝素HA (H7N9 influenza virus); experiment: ELISA of 293F transfection supernatant (well B, supernatant)
[3] = target: H7N9病毒的血凝素HA (H7N9 influenza virus); experiment: ELISA of 293F transfection supernatant (well A, supernatant)

B1: 抗H7N9全人源单克隆抗体8E17 (antibody, V domains shown)
VH: QVQLVESGGGVVQPGRSLRLSCAASGFIFSNYGMHWVRQAPGRGLEWVAVIWSDGTTTYYADSFKGRFTISSDNSKNTVYLQMNSLRADDSAIYYCARGDLDVVQVAAVTKLWDYWGQGTLVTVSS
VL: QSVLTQPPSASGSLGRSVTISCTGTSSDVGGYNYVSWYQQHPGKVPKLLVYEVTKRPSGVPDRFSGSKSGNTASLTVSGLQAEDEADYYCSSYAVSNNFVFGTGTKLTVTV
In the case of B1, the absorbance at 450 nm (450) [1] is reported as 2.96 OD450, the absorbance at 450 nm (450) [2] is reported as 3.12 OD450 and the absorbance at 450 nm (450) [3] is reported as 3 OD450.
